These results are taken from patent US20100204053.

This data set deals with RSK2.
Sequence of RSK2 (chain, as listed by the source): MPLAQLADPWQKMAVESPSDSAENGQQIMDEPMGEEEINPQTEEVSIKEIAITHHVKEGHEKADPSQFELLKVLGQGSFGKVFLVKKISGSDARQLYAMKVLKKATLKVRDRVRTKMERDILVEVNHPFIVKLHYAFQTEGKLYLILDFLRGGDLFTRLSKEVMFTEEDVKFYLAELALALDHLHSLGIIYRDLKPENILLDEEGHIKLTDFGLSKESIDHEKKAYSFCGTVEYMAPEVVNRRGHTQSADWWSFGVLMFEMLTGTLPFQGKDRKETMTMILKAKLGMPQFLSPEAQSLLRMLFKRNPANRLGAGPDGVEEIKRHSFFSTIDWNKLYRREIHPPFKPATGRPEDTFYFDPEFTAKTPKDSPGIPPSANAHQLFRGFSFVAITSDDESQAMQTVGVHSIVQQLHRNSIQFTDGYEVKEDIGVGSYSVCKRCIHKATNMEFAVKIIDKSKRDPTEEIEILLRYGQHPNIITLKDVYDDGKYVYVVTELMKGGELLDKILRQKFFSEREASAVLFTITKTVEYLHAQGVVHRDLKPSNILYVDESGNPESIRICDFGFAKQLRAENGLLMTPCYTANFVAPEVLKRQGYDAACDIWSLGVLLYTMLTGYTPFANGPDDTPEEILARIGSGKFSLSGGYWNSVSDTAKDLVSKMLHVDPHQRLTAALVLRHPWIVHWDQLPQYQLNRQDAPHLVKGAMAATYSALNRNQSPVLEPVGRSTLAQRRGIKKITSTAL

As to WWP1, the RSK2 ubiquitination entry was “SHN3 and WWP1 can promote RSK2 ubiquitination”.
